The nanobody polyreactivity screen of Harvey et al. (2022)

Assay: yeast display, Sf9 membrane polyspecificity reagent, FACS + sequencing; frameworks hold sequencing errors
In short: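 Using colony PCR, genes from sorted yeast display clones were amplified, then sequenced on MiSeq at 2 × 250 and filtered by CDR length. The clones had been stained with 10% biotinylated, detergent-solubilized Sf9 membrane reagent for 1 hour at 4 °C and sorted by FACS into low and high (top ~1%) gates on anti-HA and streptavidin fluorescence. Polyreactivity labels come from the gate of origin.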

Sequence	polyreactivity (PSR sort gate)
QVQHVESGGGLVQAGGSLRLSCAASGSTFDYNAMGWYRQAPGKERELVAAISFIGGATDYADCVKGRFTISRDNAKNTVYLLMNSLKPEDSGVYYCAADTTSVKDGTFYSWGQGTQVTVSS	low polyreactivity
QVQHVESGGGLVQAGGSLRLSCAASGSTFGYNPMGSYRQAPGKERELTNYADSVKGRFTISRDNAKNTVYLQMNSLKPEDTAVYYCNAQIDFGDPEKRAWGYDYWGQGTQVTVSS	low polyreactivity
QVQHVESGGGLVQAGGSLRLSCAASGSTFPYYAMGWYRQAPGNERELVAAISNGVSTYYADSVKGRFTISRDNAKNTVYFHMNCLKQVDTAVYYCAGDFWITTRDIVKWWLYDYWGQGTQVTVSS	low polyreactivity
QVQHVESGGGLVQAGGSLRLSCAASGSTFVVYAMGWYRQAPGKERELVAAINWSGGSTYYADSVKGRFTISRDNAKNTVYLQMNSLKPEDTAVYYCSAYGVTYRGDYDYWGQGTQVTVSS	low polyreactivity
QVQHVESGGGLVQAGGSLRLSCAASGSTFYHNAMGWYRQAPGKERELVAAITSGTSTYYADSVKGRFTISRDNAKNTVYLHMNSLKPEDTAVYYCAADSPWGGGYFVLYNYWGQGTQVTVSS	low polyreactivity
QVQHVESGGGLVQAGGSLRLSCAASGSTFYRYAMGWYRQAPGNERELVAAISASGGSTYYADSVKGRFTISRDNAKNTVYLQMNSLKPEDTAVYYCNRDRRYRNDYWGQGTQVTVSS	high polyreactivity
QVQHVESGGGLVQAGGSLRLSCAASGTIFLYNAMGWYRQAPGKERELVAAIRGSDGITFYADSVKGRFTISRDNAKNTVYLQMNSLKPEDTAVYYCAKDTYRSPRHDYGYWGQGTQVTVSS	low polyreactivity
QVQHVESGGGLVQAGGSLRLSCAASGYTFCRYAMGWYRQAPGKERELVAAISQSGGRTYYADSVKGRFTISRDNAKNTVYFQMNSLKPDDTAVYYCATSSTQGDDYWGQGTQVTVSS	high polyreactivity
QVQHVESGGGLVQAGGSLRLSCAASGYTFYIYAMGWYRQAHGKERELVATISSSGGGTYYADSVKGRFTISRDNAKNTVYLQMNSLTPEDTAVYYCNADGWYWQAQGYDYWGQGTQVTVSS	low polyreactivity
QVQHVESGGGLVQAGGSLRLSCAASVIIFLWYAMGRYRQAPGKERELGAAISRSGSSTYYADSVKGRFTISRDNAKNTVYLQMNSLKPEDTAVYYCAAAYYSKRSCRFDYWGQGTQVTVSS	high polyreactivity
QVQHVESGGGLVQAGGSLRLSCAASVSIFGWKAMGWYRKAPGKERQLVAVITCAGSTNYADSVKGRFTISRDNAKNTVYLQMNSLKPEDTAVYYCAAENLGQGGNFAYFGYYYWGQGTQVTVSS	low polyreactivity
QVQHVESGGGLVQAGGSLRLSCAAYGRTLDVNAMGWYRQAPGKERELVAAIDWGVGTTYYADSVKGRFTISRDNAKNTVYLQMNSLKPEDTAVYYCAVEVYYSVYGYPVQYYYWGQGTQVTVSS	high polyreactivity
QVQHVESGGGLVQAGGSLRLSCASSGRIFPTNAMGWSRQAPGKDRELVASITRSGSTYYADSVKGRFTISRDNAKNTVYLQMNSLKPEDTAVYNCAAYAYIFMDWGGYPYYLYEYEYLGQGTQVTVSS	low polyreactivity
QVQHVESGGGLVQAGGSLRLSCDASGSIFRVYAMGWDRQAPGKERELVAAISRDGSTNYADSVKGRFTISRDNAKNTVYLQMNSLKPEDTAVYYCAAYRTYRGARMNYWGQGTQVTVSS	low polyreactivity
QVQHVESGGGLVQAGGSLRLSGAASGRTFYKNTMGWSRQAPGKERELVAGISQRGGRTYYADSVKGRFTISRDYAKNTVYLQMNSLNPEDTAVYYCAVRSYVHGFDYWGQGTQVTVSS	high polyreactivity
QVQHVESGGGLVQAGGSLRLSSAASGITFPVYAMGWYRPTPGKERELVAAITFSGSNTYYADSVKGRFTISRDNAKNTVYLQMNSLKPEDTAVYYCNAETGGVYFNYYYVGEYYYWGQGTQVTVSS	low polyreactivity
QVQHVESGGGLVQAGGSLRLTCAASGRTFGVYAMGWYRQAPGKEREFVAVISWSDDSTYYADSVKGRFTISRDYAKNTVNLQMNSLKPEDTAVYYCNADDYLVYSGSHYGYWGQGTQVTVSS	low polyreactivity
QVQHVESGGGLVQAGGSLRLTCAATGFTFEKNAMGWYRQAPGKERELVAAISRGGSTYADSVKGRFTISRDNAKNTVYLQMNSLKPEDTAVYYCAADTVYIFSSAINGEFVFWGQGTQVTVSS	low polyreactivity
QVQHVESGGGLVQARGSLRLRCAASGFIFRANAMGWYRHAPGKERELVATISRSGGSTSYADSVKGLFTISRDNAKNTVYLQMNSLKPEDSAVYYCAARKYTLRRKSRYGYWGQGTQVTVSS	high polyreactivity
QVQHVESGGGLVQARGSLRLSCAASGFIIWGYAMGWYRQAPGKERELVAAISSSGGSTYYADSVKGRFTISRDNAKNTVYLQMNSLKPEDTAVYYCAAVRYQAYSGDGGYWGQGTQVTVSS	low polyreactivity
QVQHVESGGGLVQSGGSLRLSCAASGRNFKFNPMGWYRQPPGKERELVAGITWTGSTTSYADSVKGRFTISRDNATNPVYLQMNSLKPEDTEVYYCDGDKIGFWYHGFYYRGQGTQVTVSS	low polyreactivity
QVQHVESGGRLVQAGGSLRLSCAASGSIFGRYVMGWYRQAPGKESELVAAISGSGGSTNYADSVKGRFTISRDNAKNTVYLQMNSLKPEDTAVYYCATLRWFWYTRSTRIGDYWGQGTQVTVSS	high polyreactivity

Sequence	polyreactivity (PSR sort gate)
QVQHVESGGRLVQAGGSLRLSCAASGSNWIYAMGWYRQAPGKERELVAAISVSGDRTYYADSVKGRFTISRDNAKNTVYLQMNSLKPEDTAVYYSATPPYPGRDYWGQGTEVTVSS	high polyreactivity
QVQHVESGGRLVQAGGSLRLSCAASGSTLDVYAMGWYRQAPGKERELVAAISWSVGSTYYADSVKGRFKISRDNAKNTVYLQMNRLKPEDTAVYYCAAEPYEYAYFGYDYWGQGTQVTVSS	high polyreactivity
QVQHVESGGSLVQAGGSLRLSCAASGRTFRRYAMGWFRHAPGKAWELVAAIRSDGATYYADSVKGRFTISRDNAKNTVYLQMNSLKPEDTAVYYCNAVYVSSVTGHVDWGQGTQVTVSS	low polyreactivity
QVQHVESGGVLVQAGGSLRLSCAASGRTFISNVMGWYRPAPGKERELVAGITGGGNTYYADSVKGRFTISRDNAKNTVYLQMNSLKPEDTAVYYCAVRYPSYGLSYVRYGYWGQGTQLTVSS	high polyreactivity
QVQHVESGLGLVQAGCSLRLSCAASGITFYPYTMGWYRQAPGKERELVAAIDYNGDSTYYADSVKGRFTISRDNAKNTVYLQFNSLKPEDTAVYYCAADVWTLDPDEYDYWGQGTQVTVSS	low polyreactivity
QVQHVESGRGLVQAGGILRLTCAASGRTFEYYAMGWYRQAPGKERELVAAITYSGDSTYYADSVKGRFTISRDNAKNTFYLQMNSLKPEDTAVYYCAADWSSLKDDYWGQGTQVTVSS	low polyreactivity
QVQHVESGRGLVQAGGSLRLICAASGRIFDLNDMGRSRQAPGKERELVAAITSAGSTYYADSVKGRFTISRDNAKNTVYLQMNSLKPEDTAVYYCNKVARGVVRPGRVGSDYWAQGTQVTVSS	high polyreactivity
QVQHVESGRGLVQAGGSLRLSCAASGLTFSRYAMGWYRQAPGKERELVAAITRSGGSTYYADSVKGRFTISRDNEKNTVYLQMKSLKPEDSAVYYCARTFTDRYGHWYGYWGQGTQVTVSS	high polyreactivity
QVQHVESGVGLVQAGGSLRLSCAASGSTFDRYAMRWYRQAPGKERELVAAISWSAGRTYYADSVKGRFTISRDNAKNTVYLQMNSLKPEDTAVYYCAADQIVSGTYDYYWGQGTQVTVSS	low polyreactivity
QVQHVESGVGLVQAGGSLRLSCAASGSTFSWYTMGWYRQAPGKERELVAAISWSGGRTYYADSVKGRFTISRDNAKNTVYLQMNSLKPEDTAVYYCAAYDYWYSLGDYQFYYWGQGTQVTVSS	low polyreactivity
QVQHVESRGGLVQAGGSLRLSCAASGLILSGYTMGWYRQAPGKERELVAAISRSGGSTYYADSVKGRFTISRDNAKNTVYLQMNSLKPEDTAVYYCAKVPIYRYGVWAMNYWGQGTLVTVSS	high polyreactivity
QVQHVESRGGLVQAGGSLRLSCAASGRTFSRNAMGRYRQAPGKERELVATITSDGSTNYADSVKGRFTISRDNAKNTVYLQMNSLKPEDTAVYYCAAGEQSSIIGAHDYWGQGTQVTVSS	low polyreactivity
QVQHVESRGGLVQAGGSLRLSCAASGSTFGVYAMGRYRQAPGKERELDASISSGGRTKYADSVKGRFTISRDNAKNTVYLQMNSLKPEDTAVYFCAARIRYLGVRDNDNYYCGQGTQVTVSS	low polyreactivity
QVQHVESVGGLVQAGGSLRLSCAASGRIFNYNSMGWYRLAPVKERELVAVITSVDSTNYADSVKGRFTISRDNAKNTVYLQMNSLKQEDTAVYYCASEYYSIRYGPHSIEVYCMEYWGQGTQVTVSS	low polyreactivity
QVQHVESVGGLVQAGGSLRLSCAASGSIFSNNVMGWYRQAPGKERELVAAITVSGGRTYYADSVKGRFTISRDNAKNSVYLQMNSLKPEDTAVYYCATGVWKYSPDGDVGDQLSGYDYWGQGTQVTVSS	low polyreactivity
QVQHVESVGGLVQAGGSLRLSSATSGSIFITNAMGCYRQPPGKESELVAAIRDSGDRTYYADSVKGRFTISRDNGKNNVSLQMNSLKPEDTAVYYCNARCQEPLNYDYWGQGTQGTVSS	low polyreactivity
QVQHVESVVGLVQAGVSLPLSGASSGYIFLENAMGWYRQATGKERELDAAITVSGGGTYYADSVKGRFTISRDNAKITVYLQMNSLKPEDTAVYYCAADEDNPWLWFYYWGLGTQVTVSS	low polyreactivity
QVQHVKSGGGLVQAGGSLRLSCAASGSIFGYNTMGWYRQAPGKERELVATITYRGGSTYYADSVKGRFTISRDNAKNTVYLQMNSLKPEDTAVYYCARRVTRYPYTTWDSAGDYWGQGTQVTVSS	high polyreactivity
QVQIEESGGGLVQAGGSIRLSCAASGRIFFLNAMGWYRQAPGKERELVAAISKSGGSTYYADSEKGRFTISRDNAKNTGFLQMNSLKPEDTAVYYCAARLHRFIRVDFGYDYWGQGTQVTVSS	high polyreactivity
QVQIEESGGGLVQAGGSLRLSCAASGFTFTYNDMGWNRQAPGKETEFVAAISSTGGSTYYADSVKGRFTISRDNAKNTVYLQMNSLKPEDTAVYYCAAEDSWYWDAWFDYWGQGTQVTVSS	low polyreactivity
QVQIEESGGGLVQAGGSLRLSCAASGRIFSLNVMGWSRQAPRKERELVATIRGRGTSTYYADSVKGRFTISRDNAKNTVYLQMNSLKPEDTAVYYCAASGHGAYGYWGQGTQVTVSS	low polyreactivity
